Experimental data: article PMC6200766, “Fisetin targets YB-1/RSK axis independent of its effect on ERK signaling: insights from in vitro and in vivo melanoma models” (Scientific Reports, 2018)

Tests used:
Conditions in all cases: both partners purified
[1] = target: T1, RPS6KA1 (RSK1, 88.5 kDa) recombinant human protein, full length, HIS-tag (human, UniProt Q15418 1-735); assay: SPR; Biacore T-200, 25 °C; GST-YB-1 (51-139), 60 RU, amine-coupled on a CM5 chip; RSK1 or RSK2 flowed at 100-0 nM without BSA, 30 ul/min; full kinetics; KD from ka and kd or steady state
T1 construct: p90 ribosomal S6 kinase 1 (RSK1, RPS6KA1), human, full length, 88.5 kDa; source: bought: Life Technologies, Italy
T1 sequence (Q15418 whole entry): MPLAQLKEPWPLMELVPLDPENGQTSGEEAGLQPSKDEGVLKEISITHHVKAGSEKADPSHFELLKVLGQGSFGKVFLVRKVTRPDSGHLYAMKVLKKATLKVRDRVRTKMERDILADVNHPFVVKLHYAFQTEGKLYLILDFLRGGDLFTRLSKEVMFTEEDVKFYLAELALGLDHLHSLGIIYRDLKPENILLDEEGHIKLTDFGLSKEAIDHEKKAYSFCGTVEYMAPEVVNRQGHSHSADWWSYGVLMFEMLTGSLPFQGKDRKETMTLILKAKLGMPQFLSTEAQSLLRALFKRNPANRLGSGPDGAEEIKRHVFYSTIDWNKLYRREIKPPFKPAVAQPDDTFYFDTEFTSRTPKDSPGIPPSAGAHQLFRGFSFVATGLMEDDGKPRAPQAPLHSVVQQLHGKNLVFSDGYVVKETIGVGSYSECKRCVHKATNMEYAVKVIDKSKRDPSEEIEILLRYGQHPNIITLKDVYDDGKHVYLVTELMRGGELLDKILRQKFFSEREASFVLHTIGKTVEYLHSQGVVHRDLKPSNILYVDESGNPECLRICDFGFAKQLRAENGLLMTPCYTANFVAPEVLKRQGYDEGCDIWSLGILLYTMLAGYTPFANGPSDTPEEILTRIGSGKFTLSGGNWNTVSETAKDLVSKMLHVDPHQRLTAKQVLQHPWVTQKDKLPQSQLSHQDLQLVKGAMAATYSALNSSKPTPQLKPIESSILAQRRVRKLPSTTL

[2] = target: T2, RPS6KA3 (RSK2, 86.3 kDa) recombinant human protein, full length, HIS-tag (human, UniProt P51812 1-740); assay: as above
T2 construct: p90 ribosomal S6 kinase 2 (RSK2, RPS6KA3), human, full length, 86.3 kDa; source: bought: Life Technologies, Italy
T2 sequence (P51812 whole entry): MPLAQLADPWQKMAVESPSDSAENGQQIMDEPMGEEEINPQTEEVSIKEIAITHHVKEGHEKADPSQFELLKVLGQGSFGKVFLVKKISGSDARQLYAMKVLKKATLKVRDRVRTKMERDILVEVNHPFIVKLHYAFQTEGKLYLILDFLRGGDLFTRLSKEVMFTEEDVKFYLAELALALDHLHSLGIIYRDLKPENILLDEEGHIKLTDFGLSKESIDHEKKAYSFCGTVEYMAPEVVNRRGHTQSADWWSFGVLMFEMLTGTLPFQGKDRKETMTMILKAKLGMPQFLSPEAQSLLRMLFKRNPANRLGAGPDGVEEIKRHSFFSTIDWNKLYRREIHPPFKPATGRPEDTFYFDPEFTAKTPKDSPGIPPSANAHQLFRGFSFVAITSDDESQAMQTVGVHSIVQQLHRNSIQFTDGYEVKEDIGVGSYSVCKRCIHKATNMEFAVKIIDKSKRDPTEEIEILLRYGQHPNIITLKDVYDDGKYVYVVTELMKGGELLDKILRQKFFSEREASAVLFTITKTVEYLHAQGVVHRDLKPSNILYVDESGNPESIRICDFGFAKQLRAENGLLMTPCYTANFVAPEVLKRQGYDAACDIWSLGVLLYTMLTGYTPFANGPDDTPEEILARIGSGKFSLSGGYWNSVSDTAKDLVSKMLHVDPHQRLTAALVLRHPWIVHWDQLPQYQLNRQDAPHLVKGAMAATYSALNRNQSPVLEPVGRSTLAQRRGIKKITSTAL

[3] = target: T2, RPS6KA3 (RSK2, 86.3 kDa) recombinant …; assay: SPR; Biacore T-200, 25 °C; GST-YB-1 (51-139) amine-coupled on a CM5 chip; RSK2 flowed at 50, 25, 12.5, 6.25, 3.125, 0 nM, 30 ul/min; 10 mM HEPES pH 7.4, 150 mM NaCl, 3 mM EDTA, 0.05% P20, 0.1% BSA; full kinetics

- Kd [1]: 246000 nM
- Kd [2]: 534 nM
- Kd [3]: 402 nM
B1: YB-1 human recombinant protein with GST-tag at N-terminal (51-139 aa) (domain or fragment)
chain: not shown
notes: 35 kDa including GST tag; Immobilised by amine coupling (EDC/NHS) on a CM5 chip with its GST tag; source: bought: Abnova Corporation, Taiwan; not shown: GST, N-terminal, kept
